Reference: patent US20200291109A1, “Composition to induce bone marrow stem cell mobilization” (Universitá degli Studi di Padova, priority 2014, published 2020)

What was measured:
[1] = tested on: LKS stem cells; assay: G-CSF alone induced mobilization of LKS stem cells in diabetic mice; type: in vivo; conditions: G-CSF only
Text: In order to obtain in vivo validation of such mechanism, inhibition of oncostatin M (OSM) has been carried out in mice induced with diabetes by injecting streptozotocin as mentioned above and analyzed after 4 weeks from hyperglycemia development, by intraperitoneal injection of a polyclonal neutralizing antibody (AF-495-NA, R&D Systems) specific for murine oncostatin M (OSM), before beginning a marrow stimulation cycle by a subcutaneous injection of G-CSF ([…] for 4 consecutive days).

[2] = tested on: SDF-1α/CXCL12 expression in human mesenchymal stem cells; assay: Induction of SDF-1α/CXCL12 gene expression in human mesenchymal stem cells by oncostatin M (qPCR); type: cell-based; conditions: increasing concentrations of OSM
Description: Therefore, the effect of such media on the gene expression of SDF-1α/CXCL12 in human (stromal) mesenchymal stem cells by qPCR was evaluated (primers forward ATGCCCATGCCGATTCTT [SEQ ID NO. 5]; reverse […] [SEQ ID NO. 6]; reference sequence NCBI NM_000609.6).

Molecule | mobilization of LKS stem cells [1] | expression of SDF-1α/CXCL12 [2]
G-CSF: granulocyte colony stimulating factor, growth factor used for stem cell mobilization (protein, UniProt P09919 31-207, looked up) Granulocyte …: TPLGPASSLPQSFLLKCLEQVRKIQGDGAALQEKLVSECATYKLCHPEELVLLGHSLGIPWAPLSSCPSQALQLAGCLSQLHSGLFLYQGLLQALEGISPELGPTLDTLQLDVADFATTIWQQMEELGMAPALQPTQGAMPAFASAFQRRAGGVLVASHLQSFLEVSYRVLRHLAQP | not able to induce mobilization | 
oncostatin M (OSM): 28-kDa glycoprotein of cytokine family, macrophage derived factor (protein) AAIGSCSKEYRVLLGQLQKQTDLMQDTSRLLDPYIRIQGLDVPKLREHCRERPGAFPSEETLRGLGRRGFLQTLNATLGCVLHRLADLEQRLPKAQDLERSGLNIEDLEKLQMARPNILGLRNNIYCMAQLLDNSDTAEPTKAGRGASQPPTPTPASDAFQRKLEGCRFLHGYHRFMHSVGRVFSKWGESPNRSRR |  | progressively increase the expression
